Test results published in patent US10800813 (Bicycle, dated 2020).
Where two headings read alike, the source gives them in different places. Numbered stars: 1 amine (or outer) side, 2 acyl side, 3 side chain; on linkers, the order of the positions; unused ones are H or OH. Bridge positions count the residues as written; N and C are the ends. Square brackets hold non-standard residues; d marks the D form. Ends that are not written are not given here. Phe(4-guanidino) = N=C(N)Nc1ccc(C[C@H](N)C(=O)O)cc1; TBMB = c1c(C[*:1])cc(C[*:3])cc1C[*:2]; NMeR = CN[C@@H](CCCNC(=N)N)C(=O)O; hArg = N=C(N)NCCCC[C@H](N)C(=O)O; Aze = O=C(O)[C@@H]1CCN1; Abu = CC[C@H](N)C(=O)O

Key:
human plasma Kallikrein [1] = biological target: T1, human plasma Kallikrein (human, UniProt P03952 20-638, limits assumed); assay: enzyme inhibition assay
T1 construct: also called hPK; human PK
T1 sequence (P03952 20-638 limits assumed): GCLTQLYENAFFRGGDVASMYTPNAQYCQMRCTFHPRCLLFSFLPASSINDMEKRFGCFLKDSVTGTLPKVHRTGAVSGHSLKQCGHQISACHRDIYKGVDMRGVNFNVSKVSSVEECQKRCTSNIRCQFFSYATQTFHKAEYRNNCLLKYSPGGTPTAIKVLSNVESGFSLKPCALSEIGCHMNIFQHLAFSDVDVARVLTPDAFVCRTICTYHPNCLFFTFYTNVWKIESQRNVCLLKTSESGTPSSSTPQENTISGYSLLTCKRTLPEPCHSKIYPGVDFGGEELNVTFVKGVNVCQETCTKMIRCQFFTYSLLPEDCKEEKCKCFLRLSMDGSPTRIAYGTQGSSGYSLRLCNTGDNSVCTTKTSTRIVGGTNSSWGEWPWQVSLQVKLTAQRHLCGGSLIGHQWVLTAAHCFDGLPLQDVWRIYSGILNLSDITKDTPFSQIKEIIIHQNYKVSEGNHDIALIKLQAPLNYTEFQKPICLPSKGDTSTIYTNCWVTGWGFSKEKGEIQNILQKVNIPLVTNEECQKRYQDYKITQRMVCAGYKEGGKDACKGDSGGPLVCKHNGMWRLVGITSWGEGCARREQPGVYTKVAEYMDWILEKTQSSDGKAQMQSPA

Human factor XIa = biological target: T2, Human factor XIa (human, UniProt P03951 19-625); assay: enzyme inhibition assay
T2 construct: also called hfXIa

Rat plasma Kallikrein [2] = biological target: T3, Rat plasma Kallikrein (rat, UniProt P14272 391-638, limits assumed); assay: enzyme inhibition assay
T3 construct: domain: catalytic domain; also called rPK; rat PK
T3 sequence (P14272 391-638 limits assumed): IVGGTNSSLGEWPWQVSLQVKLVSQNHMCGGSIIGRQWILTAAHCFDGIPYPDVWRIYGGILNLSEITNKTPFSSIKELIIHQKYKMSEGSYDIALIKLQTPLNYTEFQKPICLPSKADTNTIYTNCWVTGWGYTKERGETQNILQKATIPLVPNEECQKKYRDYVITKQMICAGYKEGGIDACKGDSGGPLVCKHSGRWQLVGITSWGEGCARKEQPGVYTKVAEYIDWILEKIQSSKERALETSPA

Monkey plasma Kallikrein = biological target: T4, Monkey plasma Kallikrein (monkey (Macaca mulatta), UniProt A0A1D5Q7U7 391-638); assay: enzyme inhibition assay
T4 construct: domain: catalytic domain; also called mPK
T4 sequence (A0A1D5Q7U7 entry or part of it): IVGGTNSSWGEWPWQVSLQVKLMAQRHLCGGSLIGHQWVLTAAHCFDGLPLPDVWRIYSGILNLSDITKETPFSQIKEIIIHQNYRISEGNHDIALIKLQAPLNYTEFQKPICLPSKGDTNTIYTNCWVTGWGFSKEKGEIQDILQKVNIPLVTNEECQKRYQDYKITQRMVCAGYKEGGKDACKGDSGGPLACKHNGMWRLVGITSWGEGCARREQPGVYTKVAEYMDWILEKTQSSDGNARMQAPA

human plasma Kallikrein [3] = biological target: T1, human plasma Kallikrein; assay: enzyme inhibition assay; remark: listed apart in the source
human plasma Kallikrein [4] = biological target: T1, human plasma Kallikrein; assay: enzyme inhibition assay; remark: listed apart in the source
human plasma Kallikrein [5] = biological target: T1, human plasma Kallikrein; assay: enzyme inhibition assay; remark: listed apart in the source
human plasma Kallikrein [6] = biological target: T1, human plasma Kallikrein; assay: enzyme inhibition assay; remark: listed apart in the source
human plasma Kallikrein [7] = biological target: T1, human plasma Kallikrein; assay: enzyme inhibition assay; remark: listed apart in the source
Rat plasma Kallikrein [8] = biological target: T3, Rat plasma Kallikrein; assay: enzyme inhibition assay; values relative, not absolute
human plasma Kallikrein [9] = biological target: T1, human plasma Kallikrein; assay: enzyme inhibition assay; remark: listed apart in the source
human plasma Kallikrein [10] = biological target: T1, human plasma Kallikrein; assay: enzyme inhibition assay; remark: listed apart in the source
human plasma Kallikrein [11] = biological target: T1, human plasma Kallikrein; assay: enzyme inhibition assay; remark: listed apart in the source
human plasma Kallikrein [12] = biological target: T1, human plasma Kallikrein; assay: enzyme inhibition assay; remark: listed apart in the source
human plasma Kallikrein [13] = biological target: T1, human plasma Kallikrein; assay: enzyme inhibition assay; remark: listed apart in the source
human plasma Kallikrein [14] = biological target: T1, human plasma Kallikrein; assay: enzyme inhibition assay; remark: listed apart in the source
Rat plasma Kallikrein [15] = biological target: T3, Rat plasma Kallikrein; assay: enzyme inhibition assay; values relative, not absolute; remark: listed apart in the source
human plasma Kallikrein [16] = biological target: T1, human plasma Kallikrein; assay: enzyme inhibition assay; remark: listed apart in the source
human plasma Kallikrein [17] = biological target: T1, human plasma Kallikrein; assay: enzyme inhibition assay; remark: listed apart in the source
human plasma Kallikrein [18] = biological target: T1, human plasma Kallikrein; assay: enzyme inhibition assay; remark: listed apart in the source
Human plasmin = Human plasmin (human, UniProt P00747 97-810); assay: enzyme inhibition assay
Chain of Human plasmin (P00747 97-810 limits assumed): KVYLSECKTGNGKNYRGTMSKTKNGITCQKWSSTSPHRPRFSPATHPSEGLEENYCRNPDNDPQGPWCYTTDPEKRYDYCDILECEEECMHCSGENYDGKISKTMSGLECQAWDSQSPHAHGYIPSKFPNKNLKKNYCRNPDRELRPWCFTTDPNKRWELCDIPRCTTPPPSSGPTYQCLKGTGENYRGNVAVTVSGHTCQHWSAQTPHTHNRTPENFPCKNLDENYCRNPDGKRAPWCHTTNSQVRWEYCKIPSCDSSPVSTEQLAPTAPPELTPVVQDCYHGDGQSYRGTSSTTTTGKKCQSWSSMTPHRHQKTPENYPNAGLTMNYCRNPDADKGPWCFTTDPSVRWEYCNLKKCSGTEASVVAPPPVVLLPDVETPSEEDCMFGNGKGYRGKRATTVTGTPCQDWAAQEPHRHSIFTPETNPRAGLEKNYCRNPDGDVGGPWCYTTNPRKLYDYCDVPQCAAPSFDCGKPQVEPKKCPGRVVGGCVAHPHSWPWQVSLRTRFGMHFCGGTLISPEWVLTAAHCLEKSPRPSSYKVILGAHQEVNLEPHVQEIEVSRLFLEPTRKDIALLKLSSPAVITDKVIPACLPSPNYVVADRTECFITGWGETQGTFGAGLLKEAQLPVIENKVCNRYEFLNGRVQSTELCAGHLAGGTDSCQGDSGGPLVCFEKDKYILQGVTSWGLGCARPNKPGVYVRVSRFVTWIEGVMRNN

B1: Ac-(06-34-18) Aze3 Aba4 NMeArg5 (peptide)
peptide: Ac-CSW[Aze][Abu][NMeR]CLHQDLC-NH2
modifications: linker 1-7-13 via TBMB
For B1, the Ki (human plasma Kallikrein [1]) was 2.8 nM.

B2: 3B3 (peptide)
peptide: ACFKACRVNCA
modifications: linker 2-6-10 via TBMB
notes: also called PK117
B2 was tested, and the Ki (Human factor XIa) was 57 nM, the Ki (Rat plasma Kallikrein [2]) was 24 nM and the Ki (Monkey plasma Kallikrein) was 11 nM.

B3: Ac-(06-34-18) Aze3 Aba4 HomoArg5 (peptide)
peptide: Ac-CSW[Aze][Abu][hArg]CLHQDLC-NH2
modifications: linker 1-7-13 via TBMB
B3 showed a Ki (human plasma Kallikrein [1]) of 0.9 nM.

B4: 3B8 (peptide)
peptide: ACFKHCRVACA
modifications: linker 2-6-10 via TBMB
notes: also called PK123
Work on B4 yielded a Ki (human plasma Kallikrein [3]) of 0.95 nM, a Ki (human plasma Kallikrein [4]) of 7 nM and a Ki (Human factor XIa) of 52 nM. For the same binder, the Ki (Rat plasma Kallikrein [2]) was 12 nM and the Ki (Monkey plasma Kallikrein) was 9 nM.

B5: Ac-(06-34-18) Aze3 Aba4 4GuanPhe5 (peptide)
peptide: Ac-CSW[Aze][Abu][Phe(4-guanidino)]CLHQDLC-NH2
modifications: linker 1-7-13 via TBMB
B5 showed a Ki (human plasma Kallikrein [1]) of 0.2 nM.

B6: Ac-06-34-18(TMB)-NH2 (peptide)
peptide: Ac-CSWPARCLHQDLC-NH2
modifications: linker 1-7-13 via TBMB
SMILES: CC(=O)N[C@H]1CSCc2cc3cc(c2)CSC[C@H](NC(=O)[C@H](CCCNC(=N)N)NC(=O)[C@H](C)NC(=O)[C@@H]2CCCN2C(=O)[C@H](Cc2c[nH]c4ccccc24)NC(=O)[C@H](CO)NC1=O)C(=O)N[C@@H](CC(C)C)C(=O)N[C@@H](Cc1c[nH]cn1)C(=O)N[C@@H](CCC(N)=O)C(=O)N[C@@H](CC(=O)O)C(=O)N[C@@H](CC(C)C)C(=O)N[C@H](C(N)=O)CSC3
notes: also called Ac-(06-34-18) wildtype; Ac-(06-34-18) WPAR
B6 gave a Ki (human plasma Kallikrein [5]) of 0.17 nM, a Ki (human plasma Kallikrein [6]) of 0.17 nM and a Ki (human plasma Kallikrein [7]) of 0.17 nM. For the same binder, the IC50 (Rat plasma Kallikrein [8]) was 1.7 nM, the Ki (human plasma Kallikrein [9]) was 0.17 nM and the Ki (human plasma Kallikrein [10]) was 0.17 nM. The Ki (human plasma Kallikrein [11]) was 0.17 nM, the Ki (human plasma Kallikrein [12]) was 0.17 nM and the Ki (human plasma Kallikrein [13]) was 0.17 nM. It also gave a Ki (human plasma Kallikrein [1]) of 0.17 nM and a Ki (human plasma Kallikrein [14]) of 0.17 nM.

B7: Ac-(06-34-18) Phe2 Tyr4 NMeArg5 (peptide)
peptide: Ac-CSFPY[NMeR]CLHQDLC-NH2
modifications: linker 1-7-13 via TBMB
SMILES: CC(=O)N[C@H]1CSCc2cc3cc(c2)CSC[C@H](NC(=O)[C@H](CCCNC(=N)N)N(C)C(=O)[C@H](Cc2ccc(O)cc2)NC(=O)[C@@H]2CCCN2C(=O)[C@H](Cc2ccccc2)NC(=O)[C@H](CO)NC1=O)C(=O)N[C@@H](CC(C)C)C(=O)N[C@@H](Cc1c[nH]cn1)C(=O)N[C@@H](CCC(N)=O)C(=O)N[C@@H](CC(=O)O)C(=O)N[C@@H](CC(C)C)C(=O)N[C@H](C(N)=O)CSC3
B7 showed an IC50 (Rat plasma Kallikrein [15]) of 60.2 nM and a Ki (human plasma Kallikrein [16]) of 3.56 nM.

B8: Ac-(06-34-18) Phe2 Tyr4 4GuanPhe5 (peptide)
peptide: Ac-CSFPY[Phe(4-guanidino)]CLHQDLC-NH2
modifications: linker 1-7-13 via TBMB
SMILES: CC(=O)N[C@H]1CSCc2cc3cc(c2)CSC[C@H](NC(=O)[C@H](Cc2ccc(NC(=N)N)cc2)NC(=O)[C@H](Cc2ccc(O)cc2)NC(=O)[C@@H]2CCCN2C(=O)[C@H](Cc2ccccc2)NC(=O)[C@H](CO)NC1=O)C(=O)N[C@@H](CC(C)C)C(=O)N[C@@H](Cc1c[nH]cn1)C(=O)N[C@@H](CCC(N)=O)C(=O)N[C@@H](CC(=O)O)C(=O)N[C@@H](CC(C)C)C(=O)N[C@H](C(N)=O)CSC3
B8 showed an IC50 (Rat plasma Kallikrein [15]) of 2.5 nM and a Ki (human plasma Kallikrein [16]) of 0.4 nM.

B9: Ac-06-34-18(TMB)-NH2 Phe2Tyr4 (peptide)
peptide: Ac-CSFPYRCLHQDLC-NH2
modifications: linker 1-7-13 via TBMB
SMILES: CC(=O)N[C@H]1CSCc2cc3cc(c2)CSC[C@H](NC(=O)[C@H](CCCNC(=N)N)NC(=O)[C@H](Cc2ccc(O)cc2)NC(=O)[C@@H]2CCCN2C(=O)[C@H](Cc2ccccc2)NC(=O)[C@H](CO)NC1=O)C(=O)N[C@@H](CC(C)C)C(=O)N[C@@H](Cc1c[nH]cn1)C(=O)N[C@@H](CCC(N)=O)C(=O)N[C@@H](CC(=O)O)C(=O)N[C@@H](CC(C)C)C(=O)N[C@H](C(N)=O)CSC3
notes: also called Ac-(06-34-18) FPYR; Ac-(06-34-18) Phe2 Tyr4
With B9 the Ki (human plasma Kallikrein [7]) was 0.46 nM, the Ki (human plasma Kallikrein [17]) was 0.46 nM and the IC50 (Rat plasma Kallikrein [15]) was 13.8 nM. It also gave a Ki (human plasma Kallikrein [16]) of 0.46 nM.

B10: Ac-(06-34-18) Phe2 Tyr4 HomoArg5 (peptide)
peptide: Ac-CSFPY[hArg]CLHQDLC-NH2
modifications: linker 1-7-13 via TBMB
SMILES: CC(=O)N[C@H]1CSCc2cc3cc(c2)CSC[C@H](NC(=O)[C@H](CCCCNC(=N)N)NC(=O)[C@H](Cc2ccc(O)cc2)NC(=O)[C@@H]2CCCN2C(=O)[C@H](Cc2ccccc2)NC(=O)[C@H](CO)NC1=O)C(=O)N[C@@H](CC(C)C)C(=O)N[C@@H](Cc1c[nH]cn1)C(=O)N[C@@H](CCC(N)=O)C(=O)N[C@@H](CC(=O)O)C(=O)N[C@@H](CC(C)C)C(=O)N[C@H](C(N)=O)CSC3
With B10 the IC50 (Rat plasma Kallikrein [15]) was 19.7 nM and the Ki (human plasma Kallikrein [16]) was 0.77 nM.

B11: 2A10 (peptide)
peptide: ACTYPYKCLHQNLCA
modifications: linker 2-8-14 via TBMB
notes: also called PK112
In the case of B11, the Ki (human plasma Kallikrein [18]) is reported as 4.98 nM, the Ki (human plasma Kallikrein [4]) is reported as 18 nM and the Ki (Rat plasma Kallikrein [2]) is reported as 66 nM. The Ki (Human plasmin) was 30 µM and the Ki (Monkey plasma Kallikrein) was 23 nM.

B12: PK15 (peptide)
peptide: H-ACSDRFRNCPADEALCG-NH2
modifications: linker 2-9-16 via TBMB
notes: 6x6 bicyclic peptide
B12 gave a Ki (human plasma Kallikrein [4]) of 3 nM, a Ki (Human factor XIa) of 75000 nM and a Ki (Rat plasma Kallikrein [2]) of 941 nM. For the same binder, the Ki (Monkey plasma Kallikrein) was 4 nM.
